As a reminder, the EC50 is the concentration needed to bring the measured effect to its halfway point. Higher therefore signals a less potent agent. Broadly, the Kd is the constant that tells how readily two partners part at equilibrium.

Numbering of substitutions follows the chain as printed.

One test has as its target T1, wild type Fcab (human, UniProt P0DOX5 218-449 = IgG part).
T1 construct: also called Fcab wt; wtFcab
The experiment in a line: SPR (Biacore), Fcab captured on Protein A chip, human soluble CD64 at 5 ug/ml as analyte. For orientation: In SPR one partner is held on a chip, and binding of the other changes the refractive index at the surface.

The target in test [1] is T2, Fcab wt expressed on yeast (human, UniProt P0DOX5 218-449 = IgG part).
T2 construct: also called non-randomized Fc fragments (Fcab wt) expressed on yeast; not shown: Aga2 display fusion partner of the pYD1-derived vector
The test can be described thus: FACS of yeast-displayed Fcab wt, CD64 staining.

Test [2] addresses T3, Her-2 on Her-2 over-expressing human breast cancer cell lines SKBR3 and Calu-3 (human, UniProt P04626 23-1255). The test can be described thus: cell-based or functional assay.
Test [3] concerns the target T4, Human soluble Her-2 (Bender Med Systems, Austria) (human, UniProt P04626 23-652, limits assumed).
T4 construct: given only as 'human soluble Her-2'; It was biotinylated (sulfo-LC-LC-biotin) for the yeast FACS selections; also called recombinant antigen Her2 (Bendermedsystems); Her2-biotin
The test can be described thus: ELISA, human soluble Her-2 coated at 2 ug/ml, anti-Fc CH2-HRP detection. Here is the method:
Human soluble Her-2 (Bender Med Systems, Austria) was coated to plastic at 2 μg/ml. After washing and blocking unspecific binding sites, increasing concentrations of Fcabs were added. To detect Her-2 bound Fcabs, anti-Fc CH2 domain specific monoclonal antibodies which were conjugated to horse radish peroxidase (Serotec) were added.
For orientation: ELISA stands for enzyme-linked immunosorbent assay.

Test [4] deals with T3, Her-2 on Her-2 over-expressing human …. The experiment in a line: FACS on SKBR3 cells, anti-human Fc-PE detection. The procedure: (§1) Antigen binding was also determined by SPR. Biacore CM5 chips were coated with different amounts of human soluble Her-2 followed by addition of increasing concentrations of Fcabs. […] Antigen binding was also assessed by FACS using the Her-2 over-expressing human breast cancer cell lines SKBR3 and Calu-3. 1×10⁵ cells were incubated with increasing concentrations of Fcabs for 60 minutes on ice. Then, unbound antibodies were removed by centrifugation and washing. Cell bound Fcabs were detected by incubation with anti-human Fc specific antibodies conjugated to phycoerythrin (Sigma) for 60 minutes on ice. After washing the cells, the intensity of fluorescence on the cell surface was measured in a FACS Calibur instrument (Beckton Dickinson).

The target of test [5] is T4, Human soluble Her-2 (Bender Med …). The test can be described thus: assay not stated; told under affinity maturation and FACS selection with Her2.
Test [6] has the same target. The experiment in a line: SPR (Biacore), human soluble Her-2 on CM5 chip, Fcab as analyte. The procedure:
as §1

B1: human soluble CD64 (receptor, UniProt P12314 16-288, looked up)
chain: QVDTTKAVITLQPPWVSVFQEETVTLHCEVLHLPGSSSTQWFLNGTATQTSTPSYRITSASVNDSGEYRCQRGLSGRSDPIQLEIHRGWLLLQVSSRVFTEGEPLALRCHAWKDKLVYNVLYYRNGKAFKFFHWNSNLTILKTNISHNGTYHCSGMGKHRYTSAGISVTVKELFPAPVLNASVTSPLLEGNLVTLSCETKLLLQRPGLQLYFSFYMGSKTLRGRNTSSEYQILTARREDSGLYWCEAATEDGNVLKRSPELELQVLGLQLPTP
notes: also called CD64 (R&D Systems)
B1: the binding result (with wild type Fcab; in test [1]) was “binds” throughout.

B2: ABEFs0101 (designed binder)
chain: EPKSCDKTHTCPPCPAPELLGGPSVFLFPPKPKDTLMISRTPEVTCVVVDVSHEDPEVKFNWYVDGVEVHNAKTKPREEQYNSTYRVVSVLTVLHQDWLNGKEYKCKVSNKALPAPIEKTISKAKGQPREPQVYTLPPSRDEYLHGDVSLTCLVKGFYPSDIAVEWESNGQPENNYKTTPPVLDSDGSFFLYSKLTVARYSPSMWRWGHGNVFSCSVMHEALHNHYTQKSLSLSPGK
notes: The EF loop is given with 13 residues under 'AA198ff'
As for B2, the “SKBR3 cell killing (ADCC with human NK cells, 7-AAD/CFSE FACS), EC50” value in test [2] turned out to be 1 nM. In addition, the EC50 in test [3] stood at 16.1 nM; in test [4], 5.2 nM.

B3: H10-03-6 (designed binder)
chain: B2 chain with A198P, Y200H, P202A, S203R, G208A
notes: Soluble Fcab; The EF loop is given with 13 residues under 'AA198ff'; also called H10-03-6 clone
On to B3, for which the “SKBR3 cell killing (ADCC with human NK cells, 7-AAD/CFSE FACS), EC50” value in test [2] was 1.1 nM. The EC50 in test [3] amounted to 4.8 nM; in test [5], 18.9 nM; in test [4], 10.3 nM. In test [6], this molecule showed a Kd of 8.6 nM.

(Values after patent publication US20160176984A1 (published 2016).)
